In PMC4049620:

Legend:
[1] = target: T9 SipA_(36-173), N-terminally His-tagged (entire extracellular region of SipA from S. pyogenes serotype T9 strain 90/306S) (Streptococcus pyogenes serotype T9 strain 90/306S); test: crystal structure; Space group P6_(4)22, two molecules in the asymmetric unit; octamer built by crystal symmetry; crystals grown at 18°C from 1 M NaKPO4 pH 7.0, 8% MPD
[2] = target: T9 SipA_(36-173), N-terminally His-tagged (entire extracellular region of SipA from S. pyogenes serotype T9 strain 90/306S) (Streptococcus pyogenes serotype T9 strain 90/306S); test: SEC + other: dynamic light scattering; Superdex S200 10/300 in 10 mM Tris.Cl pH 8.0, 100 mM NaCl; single peak, species of about 150 kDa after glycine treatment; data not shown
[3] = target: T9 SipA_(36-173), N-terminally His-tagged (entire extracellular region of SipA from S. pyogenes serotype T9 strain 90/306S) (Streptococcus pyogenes serotype T9 strain 90/306S); test: SAXS; Australian Synchrotron SAXS/WAXS beamline; dilution series 1-20 mg/ml; experimental curve compared by CRYSOL with the curve calculated from the crystal octamer (chi^2 = 1.29)

Measured: stoichiometry N

T9 SipA_(36-173), N-terminally His-tagged (entire extracellular region of SipA from S. pyogenes serotype T9 strain 90/306S) (domain or fragment)
8: all assays above
